Measurements reported in publication PMC5030626, “G-quadruplex aptamer targeting Protein A and its capability to detect Staphylococcus aureus demonstrated by ELONA”.

How the values were obtained:
[1] = molecular target: T1, Protein A, recombinant (P7837) (Staphylococcus aureus, UniProt P02976 37-327); experiment: ELONA; ELONA and bead assay: 100 mM NaCl, 20 mM Tris-HCl pH 7.6, 10 mM MgCl2, 5 mM KCl, 1 mM CaCl2, 0.005% Tween 20, 21 C; CD: 25 mM Britton-Robinson pH 7.6, 100 mM NaCl, 10 mM MgCl2, 1 mM CaCl2, 5 mM KCl; details: protein: recombinant
[2] = molecular target: T1, Protein A, recombinant (P7837); experiment: ELONA; signal in range of library control; ELONA and bead assay: 100 mM NaCl, 20 mM Tris-HCl pH 7.6, 10 mM MgCl2, 5 mM KCl, 1 mM CaCl2, 0.005% Tween 20, 21 C; CD: 25 mM Britton-Robinson pH 7.6, 100 mM NaCl, 10 mM MgCl2, 1 mM CaCl2, 5 mM KCl
[3] = molecular target: T2, Protein A, native (Staphylococcus aureus, UniProt P38507 37-477); experiment: ELONA; ELONA and bead assay: 100 mM NaCl, 20 mM Tris-HCl pH 7.6, 10 mM MgCl2, 5 mM KCl, 1 mM CaCl2, 0.005% Tween 20, 21 C; CD: 25 mM Britton-Robinson pH 7.6, 100 mM NaCl, 10 mM MgCl2, 1 mM CaCl2, 5 mM KCl; details: protein: native; label: 3'-biotin; G4 (parallel, di-/multimers) plus 5' imperfect hairpin
[4] = molecular target: T2, Protein A, native; experiment: CD difference spectrum; ELONA and bead assay: 100 mM NaCl, 20 mM Tris-HCl pH 7.6, 10 mM MgCl2, 5 mM KCl, 1 mM CaCl2, 0.005% Tween 20, 21 C; CD: 25 mM Britton-Robinson pH 7.6, 100 mM NaCl, 10 mM MgCl2, 1 mM CaCl2, 5 mM KCl

B1: PA#2/8[S1-58] (3'Bio) (structured_DNA)
DNA: ATACCAGCTTATTCAATTAGCAACATGAGGGGGATAGAGGGGGTGGGTTCTCTCGGCT
[1]; label: 3'-biotin, G4 plus 5' imperfect hairpin
  Kd: 11.3 ± 1.4 nM

B2: PA#2/8[S1-58] (5'Bio) (structured_DNA)
DNA: B1 DNA
[1]; label: 5'-biotin, G4 plus 5' imperfect hairpin
  Kd: 23.7 ± 2 nM

## ATACCAGCTTATTCAATTAGCAACATGAGGGGGATAGAGGGGGTGGGTTC (structured_DNA) [PA#2/8[S1-50] (Bio)]
[2]; label: biotin (5' or 3'; 3' on cells), G4 plus 5' imperfect hairpin
  binding result: no binding

## ATACCAGCTTATTCAATTAGCAACATGAGGGGGATAGAGGGGG (structured_DNA) [PA#2/8[S1-43] (Bio)]
[2]; label: biotin (5' or 3'), G4, mainly monomer, plus 5' imperfect hairpin
  binding result: no binding

B3: PA#2/8 (3'Bio) (structured_DNA)
DNA: ATACCAGCTTATTCAATTAGCAACATGAGGGGGATAGAGGGGGTGGGTTCTCTCGGCTACAATCGTAATCAGTTAG
[1]; label: 3'-biotin, G4 (parallel, di-/multimers) plus 5' imperfect hairpin
  Kd: 101 ± 5.9 nM
[3]
  binding result: binds

B4: PA#2/8 (unlabelled) (structured_DNA)
DNA: B3 DNA
[4]; G4 (parallel, di-/multimers) plus 5' imperfect hairpin
  binding result: binds

B5: PA#2/8[S1-58] (unlabelled) (structured_DNA)
DNA: B1 DNA
[4]; G4 plus 5' imperfect hairpin
  binding result: binds

## ATACCAGCTTATTCAATTAGCAACATGAGGGGGATAGAGGGGGTGGGTTC (structured_DNA) [PA#2/8[S1-50] (unlabelled)]
[4]; G4 plus 5' imperfect hairpin
  binding result: binds

## ATACCAGCTTATTCAATTAGCAACATGAGGGGGATAGAGGGGG (structured_DNA) [PA#2/8[S1-43] (unlabelled)]
[4]; G4, mainly monomer, plus 5' imperfect hairpin
  binding result: binds

B6: PA#2/8 (5'Bio) (structured_DNA)
DNA: B3 DNA
[1]; label: 5'-biotin, G4 (parallel, di-/multimers) plus 5' imperfect hairpin
  Kd: 190 ± 13 nM
